Assay results taken from paper PMC10397247.

Legend:
4H3920-AA = target: T1, 4H3920-AA; experiment: two-hybrid library CCmax; settings: mean of both orientations;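 also: natural log of median RNA to DNA barcode read ratio; higher means stronger binding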
T1 chain: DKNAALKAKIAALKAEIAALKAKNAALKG

4H3029-AA = target: T2, 4H3029-AA; experiment: two-hybrid library CCmax; settings: mean of both orientations;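 also: natural log of median RNA to DNA barcode read ratio; higher means stronger binding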
T2 chain: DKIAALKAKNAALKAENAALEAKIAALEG

4H428-AA = target: T3, 4H428-AA; experiment: two-hybrid library CCmax; settings: mean of both orientations;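 also: natural log of median RNA to DNA barcode read ratio; higher means stronger binding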
T3 chain: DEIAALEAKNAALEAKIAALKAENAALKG

4H478-AA = target: T4, 4H478-AA; experiment: two-hybrid library CCmax; settings: mean of both orientations;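 also: natural log of median RNA to DNA barcode read ratio; higher means stronger binding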
T4 chain: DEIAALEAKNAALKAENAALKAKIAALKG

4H3666-AA = target: T5, 4H3666-AA; experiment: two-hybrid library CCmax; settings: mean of both orientations;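 also: natural log of median RNA to DNA barcode read ratio; higher means stronger binding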
T5 chain: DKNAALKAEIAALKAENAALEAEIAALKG

4H3121-AA = target: T6, 4H3121-AA; experiment: two-hybrid library CCmax; settings: mean of both orientations;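 also: natural log of median RNA to DNA barcode read ratio; higher means stronger binding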
T6 chain: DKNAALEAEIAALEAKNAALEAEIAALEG

4H497-AA = target: T7, 4H497-AA; experiment: two-hybrid library CCmax; settings: mean of both orientations
T7 chain: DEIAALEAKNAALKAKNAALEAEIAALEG

4H3939-AA = target: T8, 4H3939-AA; experiment: two-hybrid library CCmax; settings: mean of both orientations
T8 chain: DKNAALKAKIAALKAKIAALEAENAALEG

4H3102-AA = target: T9, 4H3102-AA; experiment: two-hybrid library CCmax; settings: mean of both orientations
T9 chain: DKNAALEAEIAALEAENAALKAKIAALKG

4H391-AA = target: T10, 4H391-AA; experiment: two-hybrid library CCmax; settings: mean of both orientations
T10 chain: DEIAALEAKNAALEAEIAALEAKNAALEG

4H3591-AA = target: T11, 4H3591-AA; experiment: two-hybrid library CCmax; settings: mean of both orientations
T11 chain: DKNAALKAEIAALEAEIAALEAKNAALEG

4H3628-AA = target: T12, 4H3628-AA; experiment: two-hybrid library CCmax
T12 chain: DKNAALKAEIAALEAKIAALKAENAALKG

4H675-AA = target: T13, 4H675-AA; experiment: two-hybrid library CCmax; settings: mean of both orientations
T13 chain: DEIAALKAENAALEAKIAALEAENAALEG

4H3066-AA = target: T14, 4H3066-AA; experiment: two-hybrid library CCmax; settings: mean of both orientations
T14 chain: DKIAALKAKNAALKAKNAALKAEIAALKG

4H2948-AA = target: T15, 4H2948-AA; experiment: two-hybrid library CCmax; settings: mean of both orientations
T15 chain: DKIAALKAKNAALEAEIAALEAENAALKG

4H3446-AA = target: T16, 4H3446-AA; experiment: two-hybrid library CCmax; settings: mean of both orientations
T16 chain: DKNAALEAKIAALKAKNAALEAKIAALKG

4H3709-AA = target: T17, 4H3709-AA; experiment: two-hybrid library CCmax; settings: mean of both orientations
T17 chain: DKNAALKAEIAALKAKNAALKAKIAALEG

4H656-AA = target: T18, 4H656-AA; experiment: two-hybrid library CCmax; settings: mean of both orientations
T18 chain: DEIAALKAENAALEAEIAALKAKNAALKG

4H971-AA = target: T19, 4H971-AA; experiment: two-hybrid library CCmax; settings: mean of both orientations
T19 chain: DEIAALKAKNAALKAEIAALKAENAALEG

4H2742-AA = target: T20, 4H2742-AA; experiment: two-hybrid library CCmax
T20 chain: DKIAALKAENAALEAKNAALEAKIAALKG

4H3417-AA = target: T21, 4H3417-AA; experiment: two-hybrid library CCmax; settings: mean of both orientations
T21 chain: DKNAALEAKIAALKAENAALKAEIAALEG

4H2991-AA = target: T22, 4H2991-AA; experiment: two-hybrid library CCmax
T22 chain: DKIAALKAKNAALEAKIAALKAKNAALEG

4H492-bA = target: T23, 4H492-bA; experiment: two-hybrid library CCNG1
T23 chain: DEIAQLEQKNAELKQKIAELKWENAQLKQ

4H741-bA = target: T24, 4H741-bA; experiment: two-hybrid library CCNG1
T24 chain: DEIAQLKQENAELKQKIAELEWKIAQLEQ

4H319-bA = target: T25, 4H319-bA; experiment: two-hybrid library CCNG1
T25 chain: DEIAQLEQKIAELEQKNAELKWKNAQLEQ

4H40-bA = target: T26, 4H40-bA; experiment: two-hybrid library CCNG1
T26 chain: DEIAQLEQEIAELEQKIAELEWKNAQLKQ

4H3277-bA = target: T27, 4H3277-bA; experiment: two-hybrid library CCNG1
T27 chain: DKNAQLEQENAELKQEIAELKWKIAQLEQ

4H477-bA = target: T28, 4H477-bA; experiment: two-hybrid library CCNG1
T28 chain: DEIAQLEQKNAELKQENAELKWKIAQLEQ

4H348-bA = target: T29, 4H348-bA; experiment: two-hybrid library CCNG1
T29 chain: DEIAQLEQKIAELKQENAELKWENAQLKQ

O9 = target: T30, O9; experiment: two-hybrid library CC0; settings: mean of both orientations
T30 chain: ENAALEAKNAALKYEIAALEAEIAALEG

O8 = target: T31, O8; experiment: two-hybrid library CC0; settings: mean of both orientations
T31 chain: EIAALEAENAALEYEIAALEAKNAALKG

O8-bA = target: T32, O8-bA; experiment: two-hybrid library CCNG1
T32 chain: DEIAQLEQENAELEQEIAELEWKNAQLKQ

O7-bA = target: T33, O7-bA; experiment: two-hybrid library CCNG1
T33 chain: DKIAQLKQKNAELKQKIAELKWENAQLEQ

O9-bA = target: T34, O9-bA; experiment: two-hybrid library CCNG1
T34 chain: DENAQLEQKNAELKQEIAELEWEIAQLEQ

B1: 4H2742-AA (peptide)
chain: DKIAALKAENAALEAKNAALEAKIAALKG
How did the interaction score (4H3920-AA) turn out when B1 was run?
The interaction score was -1.23.

And the interaction score (4H3029-AA)?
Its interaction score is 0.775.

What about the interaction score (4H428-AA) of the same binder?
The interaction score was -1.6.

What about the interaction score (4H478-AA) of the same binder?
The interaction score was 1.12.

What about the interaction score (4H3666-AA) of the same binder?
The interaction score was -1.97.

And the interaction score (4H3121-AA)?
Its interaction score is -1.7.

And the interaction score (4H497-AA)?
Its interaction score is 2.42.

And the interaction score (4H3939-AA)?
The interaction score was -1.63.

And the interaction score (4H3102-AA)?
Its interaction score is -1.33.

And the interaction score (4H391-AA)?
Its interaction score is -1.21.

And the interaction score (4H3591-AA)?
The interaction score was -0.99.

And the interaction score (4H3628-AA)?
Its interaction score is -1.49.

And the interaction score (4H675-AA)?
Its interaction score is -1.53.

And the interaction score (4H3066-AA)?
Its interaction score is 1.72.

And the interaction score (4H2948-AA)?
The interaction score was -0.899.

What about the interaction score (4H3446-AA) of the same binder?
The interaction score was -1.39.

What about the interaction score (4H3709-AA) of the same binder?
Its interaction score is -1.19.

And the interaction score (4H656-AA)?
Its interaction score is -2.

And the interaction score (4H971-AA)?
The interaction score was -1.91.

What about the interaction score (4H2742-AA) of the same binder?
The interaction score was -0.3.

What about the interaction score (4H3417-AA) of the same binder?
The interaction score was -1.41.

What about the interaction score (4H2991-AA) of the same binder?
Its interaction score is -0.693.

B2: 4H319-bA (peptide)
chain: DEIAQLEQKIAELEQKNAELKWKNAQLEQ
How did the interaction score (4H492-bA) turn out when B2 was run?
Its interaction score is -1.05.

And the interaction score (4H741-bA)?
Its interaction score is -0.873.

What about the interaction score (4H319-bA) of the same binder?
The interaction score was -0.125.

What about the interaction score (4H40-bA) of the same binder?
Its interaction score is -0.44.

What about the interaction score (4H3277-bA) of the same binder?
Its interaction score is -0.964.

What about the interaction score (4H477-bA) of the same binder?
The interaction score was -0.399.

And the interaction score (4H348-bA)?
Its interaction score is -0.881.

B3: O8 (peptide)
chain: EIAALEAENAALEYEIAALEAKNAALKG
What does the source list for B3?
interaction score (O9): -2.53; interaction score (O8): -2.62

B4: O7-bA (peptide)
chain: DKIAQLKQKNAELKQKIAELKWENAQLEQ
What does the source list for B4?
interaction score (O8-bA): 2.08; interaction score (O7-bA): -1.12; interaction score (O9-bA): -0.962
